In assay [1] the target is T1, purified αvβ3 integrin (human, UniProt P06756 31-1048; P05106 27-788, limits assumed).
T1 construct: Bought purified integrin, coated on plates at 5 µg/ml; also called immobilized human αvβ3 integrin; CD51/CD61
The assay is described as follows: competition ELISA on αvβ3 coated wells; competitor: biotinylated FNfn10-3JCLI4 at 800 pM; no inhibition at the highest concentration.

Assay [2] addresses T1, purified αvβ3 integrin.
Assay [3] has as its target αvβ3 integrin on K562-αvβ3 cells (human, UniProt P06756 31-1048; P05106 27-788). The assay is described as follows: cell-based or functional assay.
Assay [4] deals with αIIbβ3 integrin on K562-αIIbβ3 cells (UniProt P08514 32-1039; P05106 27-788). The assay is described as follows: cell-based or functional assay.

Like-named read-outs stand apart in the source and are kept apart here. No end group written: not given here.

These results are taken from patent publication US20070117966A1 (UNIVERSITY OF ROCHESTER, published 2007).

T1 sequence (P06756 31-1048 limits assumed, form in doubt, chain 1 of 2): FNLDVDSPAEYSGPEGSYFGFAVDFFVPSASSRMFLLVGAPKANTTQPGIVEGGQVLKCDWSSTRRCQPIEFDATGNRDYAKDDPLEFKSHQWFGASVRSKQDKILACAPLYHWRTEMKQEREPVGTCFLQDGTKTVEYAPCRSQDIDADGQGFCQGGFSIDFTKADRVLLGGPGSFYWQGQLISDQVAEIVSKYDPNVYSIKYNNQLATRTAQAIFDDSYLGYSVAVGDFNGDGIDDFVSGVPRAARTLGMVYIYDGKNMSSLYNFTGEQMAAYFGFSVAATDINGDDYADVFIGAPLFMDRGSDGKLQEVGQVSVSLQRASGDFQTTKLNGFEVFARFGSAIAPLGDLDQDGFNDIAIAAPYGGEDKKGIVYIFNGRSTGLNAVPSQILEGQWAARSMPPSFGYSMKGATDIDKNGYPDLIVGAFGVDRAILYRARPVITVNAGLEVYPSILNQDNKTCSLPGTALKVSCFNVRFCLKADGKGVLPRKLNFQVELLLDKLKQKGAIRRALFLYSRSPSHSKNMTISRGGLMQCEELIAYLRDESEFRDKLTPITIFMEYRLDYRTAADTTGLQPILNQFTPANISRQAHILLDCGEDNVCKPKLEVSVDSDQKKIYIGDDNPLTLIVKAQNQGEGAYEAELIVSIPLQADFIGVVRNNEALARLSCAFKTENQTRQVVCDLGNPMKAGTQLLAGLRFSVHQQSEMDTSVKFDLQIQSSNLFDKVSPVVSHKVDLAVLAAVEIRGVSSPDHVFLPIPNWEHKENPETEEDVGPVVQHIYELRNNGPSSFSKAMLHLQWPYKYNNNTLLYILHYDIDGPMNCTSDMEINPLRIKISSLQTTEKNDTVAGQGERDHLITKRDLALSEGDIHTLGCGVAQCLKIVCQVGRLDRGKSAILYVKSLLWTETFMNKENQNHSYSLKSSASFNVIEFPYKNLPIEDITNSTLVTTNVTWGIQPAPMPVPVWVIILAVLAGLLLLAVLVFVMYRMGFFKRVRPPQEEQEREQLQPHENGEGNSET
T1 sequence (P05106 27-788 limits assumed, form in doubt, chain 2 of 2): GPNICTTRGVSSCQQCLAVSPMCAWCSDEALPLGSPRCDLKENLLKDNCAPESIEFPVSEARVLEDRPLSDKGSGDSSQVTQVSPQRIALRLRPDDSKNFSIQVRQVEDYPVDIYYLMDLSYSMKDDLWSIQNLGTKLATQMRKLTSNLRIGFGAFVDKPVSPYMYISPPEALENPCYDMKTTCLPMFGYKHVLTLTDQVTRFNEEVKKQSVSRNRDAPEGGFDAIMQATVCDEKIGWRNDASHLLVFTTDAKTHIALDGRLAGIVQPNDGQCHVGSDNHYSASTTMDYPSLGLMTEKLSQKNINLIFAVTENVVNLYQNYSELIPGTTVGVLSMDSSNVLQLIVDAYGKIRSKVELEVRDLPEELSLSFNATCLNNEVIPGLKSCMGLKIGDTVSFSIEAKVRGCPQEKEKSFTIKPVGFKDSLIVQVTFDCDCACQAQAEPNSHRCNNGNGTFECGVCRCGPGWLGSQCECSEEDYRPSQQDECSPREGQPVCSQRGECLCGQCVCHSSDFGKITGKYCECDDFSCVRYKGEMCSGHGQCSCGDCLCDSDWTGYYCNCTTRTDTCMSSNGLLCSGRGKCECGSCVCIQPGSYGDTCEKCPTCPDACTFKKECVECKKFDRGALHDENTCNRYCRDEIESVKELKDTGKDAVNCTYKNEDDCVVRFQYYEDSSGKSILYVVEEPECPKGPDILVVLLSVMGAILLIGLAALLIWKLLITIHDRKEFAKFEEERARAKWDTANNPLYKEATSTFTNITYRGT
αvβ3 integrin on K562-αvβ3 cells, sequence (P06756 31-1048, chain 1 of 2): as the sequence (P06756 31-1048 limits assumed, form in doubt, chain 1 of 2) above
αvβ3 integrin on K562-αvβ3 cells, sequence (P05106 27-788, chain 2 of 2): as the sequence (P05106 27-788 limits assumed, form in doubt, chain 2 of 2) above

B1: GRGDSPK peptide (peptide)
peptide: GRGDSPK
Consider B1, for which, in the assay with purified αvβ3 integrin [1], the IC50 is > 80 nM.

B2: echistatin (ligand)
chain: QCESGPCCRNCKFLKEGTICKRARGDDMDDYCNGKTCDCPRNPHKGPAT
modifications: ends and bridges not checked; cysteine pairing not given here
For B2, in the assay with purified αvβ3 integrin [2], the IC50 came out at 0.93 nM. Besides, in assay [3], the “inhibition of adhesion of K562-αvβ3 cells to vitronectin, IC50” value stood at 5.9 nM. Besides, the “inhibition of adhesion of K562-αIIbβ3 cells to fibronectin, IC50” value in assay [4] came out at 10.2 nM.

A word on the IC50: it is the point on the concentration scale where inhibition reaches its midpoint.
